According to patent publication US20210371505A1:

Biological target: Hemagglutinin of A/Wisconsin/67/2005 (H3N2) overexpressed on 3T3 cells (Influenza A virus A/Wisconsin/67/2005 (H3N2))
Experiment: cell-based or functional assay

B1: H1H14612N2 (antibody, V domains shown)
VH: EVQLVESGGGLVKPGGSLRLSCAASGFSFSGFSMNWVRQAPGKGLEWVSSISTSGNYMYYADSVKGRFTISRDNAKKSFSLQMNSLRAEDSAIYYCARGGGYNWNLFDYWGQGSLVTVSS
VL: EIVLTQSPGTLSLSPGERATLSCRASQSLNSNYLAWYQQKPGQAPRLLIYGASSRATGIPDRFSGSGSGADFTLTISRLESEDFAVYYCQQYGNSPLTFGGGTKVEIK
Q: With B1 as the binder, how does the EC50, ADCC with human donor PBMCs (CytoTox-Glo) read?
A: Its EC50, ADCC with human donor PBMCs (CytoTox-Glo) is 0.176 nM.

Q: And the EC50, FcγRIIIA activation in the ADCC-Glo reporter bioassay (Promega)?
A: Its EC50, FcγRIIIA activation in the ADCC-Glo reporter bioassay (Promega) is 0.688 nM.
